Drawing on the Immune Epitope Database (IEDB), this text covers Kd for 20 sequences.

Assay [1] addresses HLA-B*07:02. Nature of the assay: IEDB peptide-MHC binding, purified MHC/competitive/radioactivity; filed as Kd, often an IC50 or EC50 that approximates it; ≥ and ≤ were set here for values at or beyond the usual limits of such assays.
The target in the next assay is HLA-B*35:01. The assay is described as above.
The target of another assay is HLA-B*51:01. Described as above.
The target of another assay is HLA-B*53:01. Described as above.
A further assay concerns the target HLA-B*54:01. The description is as above.
For the next assay, the target named is HLA-B*15:01. Described as above.
Another assay addresses HLA-A*30:02. Described as above. The following applies: source organism: Dengue virus 3 Martinique/1243/1999.
In another assay the target is HLA-A*02:06. The description is as above. The following applies: source organism: Dengue virus 2 Jamaica/1409/1983.
The target of assay [2] is HLA-B*07:02. Nature of the assay: IEDB peptide-MHC binding, purified MHC/direct/fluorescence; filed as Kd, often an IC50 or EC50 that approximates it; ≥ and ≤ were set here for values at or beyond the usual limits of such assays. The note with it: source organism: Ovis aries.
For a further assay, the target named is HLA-A*02:01. Nature of the assay: IEDB peptide-MHC binding, purified MHC/competitive/fluorescence; filed as Kd, often an IC50 or EC50 that approximates it; ≥ and ≤ were set here for values at or beyond the usual limits of such assays. The note with it: source organism: Pan troglodytes.
The target of a further assay is HLA-B*27:03. The description is as above. The following applies: source organism: Pan troglodytes.
Setting [3] is: source organism: SARS coronavirus Tor2.
Where [4] appears, read: source organism: Vaccinia virus WR.
Where [5] appears, read: source organism: Triticum aestivum.

What is called Kd is the concentration at which binding is half-saturated.

As to WPWYVWLGFI, the Kd with HLA-B*07:02 [1] (setting [3]) is at least 51800 nM; in the assay with HLA-B*35:01 (setting [3]), at least 69900 nM; with HLA-B*51:01 (setting [3]), 11100 nM; in the assay with HLA-B*53:01 (setting [3]), 4570 nM; in the assay with HLA-B*54:01 (setting [3]), 15500 nM.
With TPIFSDLLKY, the Kd with HLA-B*07:02 [1] (setting [4]) is 3.46 nM; in the assay with HLA-B*35:01 (setting [4]), 12700 nM; in the assay with HLA-B*51:01 (setting [4]), at least 44800 nM; in the assay with HLA-B*53:01 (setting [4]) it was 3610 nM; in the assay with HLA-B*54:01 (setting [4]), 12800 nM.
Regarding MSRGYFEHM, in the assay with HLA-B*15:01 (setting [4]), the Kd was 30.8 nM.
ILALFLAHY: the figures for the Kd in the assay with HLA-A*30:02 and with HLA-B*15:01 (source organism: Dengue virus 3 Martinique/1243/1999) were 9830 nM and 53.8 nM, respectively.
In the case of RPDTRYVLM, the Kd came to 15.4 nM in the assay with HLA-B*07:02 [1] (setting [3]); 1990 nM with HLA-B*35:01 (setting [3]); 908 nM with HLA-B*51:01 (setting [3]); 4850 nM with HLA-B*53:01 (setting [3]); 1580 nM in the assay with HLA-B*54:01 (setting [3]).
Regarding AQMWTLMYF, the figures for the Kd with HLA-A*02:06 and in the assay with HLA-B*15:01 (source organism: Dengue virus 2 Jamaica/1409/1983) were 2.75 nM and 0.725 nM, respectively.
HPDFCKNRRY: the Kd in the assay with HLA-B*07:02 [1] (setting [4]) was at least 69600 nM; with HLA-B*35:01 (setting [4]) it was 2210 nM; with HLA-B*51:01 (setting [4]), at least 69600 nM; with HLA-B*53:01 (setting [4]), 1140 nM; with HLA-B*54:01 (setting [4]), at least 49300 nM.
On to QPLQQYPL, for which the equilibrium dissociation constant (Kd) with HLA-B*07:02 [1] (setting [5]) is 8450 nM; with HLA-B*35:01 (setting [5]), at least 36100 nM; with HLA-B*51:01 (setting [5]) it was 1450 nM; with HLA-B*53:01 (setting [5]), at least 22400 nM; with HLA-B*54:01 (setting [5]), at least 87700 nM.
Take LSCSVCNSL: the Kd with HLA-B*15:01 (setting [4]) was determined as 386 nM.
In the case of LPPKSSIDAF, the Kd is 3090 nM in the assay with HLA-B*07:02 [1] (setting [3]); 1110 nM with HLA-B*35:01 (setting [3]); 3490 nM with HLA-B*51:01 (setting [3]); 11100 nM with HLA-B*53:01 (setting [3]); at least 31900 nM with HLA-B*54:01 (setting [3]).
With GPLVRKIFV, the Kd in the assay with HLA-B*07:02 [1] (setting [3]) is 1380 nM; with HLA-B*35:01 (setting [3]) it was 6070 nM; with HLA-B*51:01 (setting [3]), at least 22500 nM; with HLA-B*53:01 (setting [3]), 11900 nM; with HLA-B*54:01 (setting [3]), 18000 nM.
For RVLTARKTV, the Kd with HLA-B*07:02 [2] is 418 nM; in the assay with HLA-A*02:01, at least 20000 nM; with HLA-B*27:03, at least 20000 nM.
For YIILFILFF, in the assay with HLA-B*15:01 (setting [4]), the Kd is 5240 nM.
Take SPLTLLIKTL: the Kd with HLA-B*07:02 [1] (setting [4]) is 1120 nM; with HLA-B*35:01 (setting [4]), at least 69900 nM; with HLA-B*51:01 (setting [4]), at least 57300 nM; with HLA-B*53:01 (setting [4]), at least 30000 nM; with HLA-B*54:01 (setting [4]), at least 69900 nM.
QSKSSLLHA: the Kd with HLA-B*15:01 (setting [4]) is 405 nM.
As to RMNVFNGHL, in the assay with HLA-B*15:01 (source organism: Vaccinia virus Copenhagen), the Kd was 28 nM.
For LVHQVFGTAY, the Kd in the assay with HLA-B*15:01 (source organism: Dengue virus 1 Brazil/97-11/1997) was found to be 7.15 nM.
Regarding EPLSPDTCL, the Kd with HLA-B*07:02 [1] (setting [4]) is 10500 nM; with HLA-B*35:01 (setting [4]) it was 522 nM; with HLA-B*51:01 (setting [4]), 211 nM; with HLA-B*53:01 (setting [4]) it was 189 nM; in the assay with HLA-B*54:01 (setting [4]), at least 78100 nM.
On to HPRHYATIM, for which the Kd with HLA-B*07:02 [1] (source organism: Variola virus) amounted to 1.56 nM; with HLA-B*35:01 (source organism: Variola virus) it was 153 nM; with HLA-B*51:01 (source organism: Variola virus), 19100 nM; in the assay with HLA-B*53:01 (source organism: Variola virus), 17200 nM; in the assay with HLA-B*54:01 (source organism: Variola virus) it was 18200 nM.
As to FPQHVITKDV, the Kd was found to be 57.3 nM with HLA-B*07:02 [1] (setting [4]); 153 nM with HLA-B*35:01 (setting [4]); 66.2 nM with HLA-B*51:01 (setting [4]); 16.2 nM in the assay with HLA-B*53:01 (setting [4]); 0.46 nM in the assay with HLA-B*54:01 (setting [4]).
